Reference: patent US10501552B2, “Multivalent molecules comprising DR5-binding domains” (MacroGenics, Inc., priority 2015, dated 2019)

Key:
COLO205 = test: MTS cell proliferation assay; type: cell-based; conditions: COLO205 (Colon); 1 μg/ml, ±10 μg/ml αmFc; two days
Method: (§1) Cell lines obtained from ATCC were cultured under standard tissue culture conditions. Each cell line was plated at ˜2×10^4 cells/well (in 96-well plates), and incubated overnight in F12/DMEM media supplemented with 10% FBS. […] Cell viability was determined using Promega CellTiter 96® AQeous Non-Radioactive Cell Proliferation Assay (Cat # G5430) essentially as described in the manufacturer's instructions to assay the amount of soluble formazan produced by cellular reduction of the MTS, which is a measure of the number of viable cells in the culture. Briefly, MTS/PMS regent was added to the wells and the absorbance at 490 nm (referenced at […]) was read in a Molecular Devices ThermoMax microplate reader.
(§2) Similar studies were performed over a range of anti-DR5 mAb concentrations from ˜10^−3 nM to ˜10^2 nM. The data for COLO205 cells is provided in FIG. 13, and are representative of cell lines sensitive to the antibodies of the invention.
(§3) The cytotoxicity of tetravalent DR5-Binding Molecules of the present invention was investigated. […] His-tagged TRAIL (R&D systems) was used as a positive control.
(§4) Similar studies were performed over a range of anti-DR5 mAb concentrations from ˜10^−3 nM to ˜10^2 nM.
His-tagged TRAIL (R&D systems) was used as a positive control.

PC3 [1] = test: […]-GLO cell viability assay with vorinostat; type: cell-based; conditions: PC3 (Prostate); 1 μg/ml + 1 μM Vorinostat
lung cancer tissue = test: tissue staining with labeled molecule; type: binding; conditions: 5 μg/mL
From the text: (§5) The results presented in FIGS. 15A-15B, 16, and Table 10, thus indicate that a tetravalent DR5-Binding Molecule (bispecific for two epitopes of DR5) was capable of specifically binding to cancer cells.

colon cancer tissue = test: tissue staining with labeled molecule; type: binding; conditions: 5 μg/mL
From the text: as §5

[2] = system: normal tissue (colon, liver, lung, pancreas, kidney, heart); test: tissue staining with labeled molecule; type: binding; conditions: 5 μg/mL
From the text: as §5

BT474 = test: […]-GLO cell viability assay with vorinostat; type: cell-based; conditions: BT474 (Breast); 1 μg/ml + 10 μM Vorinostat
786O [3] = test: […]-GLO cell viability assay with vorinostat; type: cell-based; conditions: 786O (Kidney); 1 μg/ml + 1 μM Vorinostat
Hs700T = test: […]-GLO cell viability assay with vorinostat; type: cell-based; conditions: Hs700T (Pancreas); 1 μg/ml + 1 μM Vorinostat
[4] = system: cell lines obtained from ATCC; test: MTS cell proliferation assay, panel of cell lines; type: cell-based; conditions: for inhibition of cell growth, antibody alone: any of cell lines examined, not cross-linked; for cytotoxicity when cross-linked: cross-linked by goat anti-mouse IgG Fc antibody
Method: as §1, §2, §3

DU145 [5] = test: […]-GLO cell viability assay with vorinostat; type: cell-based, human; conditions: DU145 (Prostate); 1 μg/ml + 10 μM Vorinostat
SKOV3 = test: […]-GLO cell viability assay with vorinostat; type: cell-based; conditions: SKOV3 (Ovary); 1 μg/ml + 1 μM Vorinostat
[6] = system: human DR5-Fc fusion protein; test: competition for binding to immobilized DR5-Fc fusion; conditions: for amount of immobilized biotinylated antibody: 1 μg/mL biotinylated DR5 mAb, 1 μg/mL DR5-Fc Fusion coat
Sequence of human DR5-Fc fusion protein (as listed by the source): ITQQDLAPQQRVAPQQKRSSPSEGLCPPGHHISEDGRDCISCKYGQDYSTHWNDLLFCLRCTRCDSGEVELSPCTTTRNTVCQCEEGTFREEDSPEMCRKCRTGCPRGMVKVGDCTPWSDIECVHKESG
Method: In order to determine whether the antibodies bound to different DR5 epitopes, a human DR5-Fc fusion protein was prepared and was coated to an immobilized surface.

22RV1 = test: […]-GLO cell viability assay with vorinostat; type: cell-based; conditions: 22RV1 (Prostate); 1 μg/ml + 10 μM Vorinostat
AsPC1 = test: […]-GLO cell viability assay with vorinostat; type: cell-based; conditions: AsPC1 (Pancreas); 1 μg/ml + 1 μM Vorinostat
MDA-MB-361 = test: […]-GLO cell viability assay with vorinostat; type: cell-based; conditions: MDA-MB-361 (Breast); 1 μg/ml + 10 μM Vorinostat
NCI-N87 [7] = test: […]-GLO cell viability assay with vorinostat; type: cell-based; conditions: NCI-N87 (Stomach); 1 μg/ml + 1 μM Vorinostat
A549 = test: MTS cell proliferation assay; type: cell-based, human; conditions: A549 (Lung); 1 μg/ml, ±10 μg/ml αmFc; two days
Method: as §1, §2, §3, §4

DU145 [8] = test: MTS cell proliferation assay; type: cell-based, human; conditions: DU145 (Prostate); 1 μg/ml, ±10 μg/ml αmFc; two days
Method: as §1, §2, §3, §4

LNCap = test: MTS cell proliferation assay; type: cell-based, human; conditions: LNCap (Prostate); 1 μg/ml, ±10 μg/ml αmFc; two days
Method: as §1, §2, §3, §4

SKMES = test: MTS cell proliferation assay; type: cell-based, human; conditions: SKMES (Lung); 1 μg/ml, ±10 μg/ml αmFc; two days
Method: as §1, §2, §3, §4

SKBR3 = test: MTS cell proliferation assay; type: cell-based, human; conditions: SKBR3 (Breast); 1 μg/ml, ±10 μg/ml αmFc; two days
Method: as §1, §2, §3, §4

PC3 [9] = test: MTS cell proliferation assay; type: cell-based; conditions: PC3 (Prostate); 1 μg/ml, ±10 μg/ml αmFc; two days
Method: as §1, §2, §3, §4

SW48 = test: MTS cell proliferation assay; type: cell-based; conditions: SW48 (Colon); 1 μg/ml, ±10 μg/ml αmFc; two days
Method: as §1, §2, §3, §4

MCF7 = test: MTS cell proliferation assay; type: cell-based; conditions: MCF7 (Breast); 1 μg/ml, ±10 μg/ml αmFc; two days
Method: as §1, §2, §3, §4

786O [10] = test: MTS cell proliferation assay; type: cell-based; conditions: 786O (Kidney); 1 μg/ml, ±10 μg/ml αmFc; two days
Method: as §1, §2, §3, §4

NCI-N87 [11] = test: MTS cell proliferation assay; type: cell-based; conditions: NCI-N87 (Stomach); 1 μg/ml, ±10 μg/ml αmFc; two days
Method: as §1, §2, §3, §4

MDA-MB-231 = test: MTS cell proliferation assay; type: cell-based; conditions: MDA-MB-231 (Breast); 1 μg/ml, ±10 μg/ml αmFc; two days
Method: as §1, §2, §3, §4

Hs746T = test: […]-GLO cell viability assay with vorinostat; type: cell-based; conditions: Hs746T (Stomach); 1 μg/ml + 10 μM Vorinostat

epitope comparison by competition [6] | amount of immobilized biotinylated antibody ([6]; 10 μg/mL competitor mIgG) | Molecule | % Inhibition (Average) (COLO205) | Net Gain (Average % Growth Inhibition) (PC3 [1]) | labeling of cells of lung cancer tissue (lung cancer tissue) | labeling of cells of colon cancer tissue (colon cancer tissue) | labeling of cells of normal tissue [2] | Net Gain (Average % Growth Inhibition) (BT474) | Net Gain (Average % Growth Inhibition) (786O [3]) | Net Gain (Average % Growth Inhibition) (Hs700T) | inhibition of cell growth, antibody alone [4] | cytotoxicity when cross-linked [4] | Net Gain (Average % Growth Inhibition) (DU145 [5]) | Net Gain (Average % Growth Inhibition) (SKOV3) | Net Gain (Average % Growth Inhibition) (22RV1) | Net Gain (Average % Growth Inhibition) (AsPC1) | Net Gain (Average % Growth Inhibition) (MDA-MB-361) | Net Gain (Average % Growth Inhibition) (NCI-N87 [7]) | % Inhibition (Average) (A549) | % Inhibition (Average) (DU145 [8]) | further results
bind to different epitopes | 2.162 | DR5 mAb 1: anti-human DR5 monoclonal antibody; VL SEQ ID NO:3, VH SEQ ID NO:8 (antibody, listed as Mus musculus, V domains shown, (1)..(121) Anti-DR5 Antibody mAb 1 Heavy Chain Variable Region; (1)..(111) Anti-DR5 Antibody mAb 1 Light Chain Variable Region) VH: EVKFLESGGGLVQPGGSLKLSCVASGFDFSRYWMSWVRQAPGKGLEWIGEINPDSNTINYTPSLKDKFIISRDNAKNTLYLQMTKVRSEDTALYYCTRRAYYGNPAWFAYWGQGTLVTVSS VL: DIVLTQSPASLAVSLGQRATISCRASKSVSSSGYSYMHWYQQKPGQPPKVLIFLSSNLDSGVPARFSGSGSGTDFTLNIHPVEDGDAATYYCQHSRDLPPTFGGGTKLEIK | 3.5% | 1.59% | strongly label | strongly label | failed to label | 2.15% | 0.64% | 0.22% | neither DR5 mAb 1, nor DR5 mAb 2 alone is capable of inhibiting cell growth | potent cytotoxicity | 4.18% | 1.75% | 7.49% | 5.11% | 5.11% | 0.12% | 2.79% | 1.66% | amount of immobilized biotinylated antibody ([6]; 10 μg/mL competitor DR5 mAb 2): 0.826; % Inhibition (Average) (LNCap): 2.1%; % Inhibition (Average) (SKMES): 1.75%; % Inhibition (Average) (SKBR3): 1.97%; % Inhibition (Average) (PC3 [9]): 2.79%; % Inhibition (Average) (SW48): 2.65%; % Inhibition (Average) (MCF7): 2.47%; % Inhibition (Average) (786O [10]): 0.91%; % Inhibition (Average) (NCI-N87 [11]): 1.6%; % Inhibition (Average) (MDA-MB-231): 1.79%; Net Gain (Average % Growth Inhibition) (Hs746T): 0.20%
bind to different epitopes | 2.102 | DR5 mAb 2: murine anti-human DR5 monoclonal antibody; VL SEQ ID NO:13, VH SEQ ID NO:18 (antibody, listed as Mus musculus, V domains shown, (1)..(119) Anti-DR5 Antibody mAb 2 Heavy Chain Variable Region; (1)..(107) Anti-DR5 Antibody mAb 2 Light Chain Variable Region) VH: KVQLQQSGAELVKPGASVKLSCKASGYTFTEYILHWVKQKSGQGLEWIGWFYPGNNNIKYNEKFKDKATLTADKSSSTVYMELSRLTSEDSAVYFCARHEQGPGYFDYWGQGTTLTVSS VL: DIVMTQSHKFMSTSVGDRVSITCKASQDVNTAVAWYQQKPGQSPKLLIYWASTRHTGVPDRFTGSGSGTDYTLTIKSVQAEDLTLYYCQQHYITPWTFGGGTKLEIK | 3.61% | 1.59% | strongly label | strongly label | failed to label | 2.23% | 2.33% | 0.22% | neither DR5 mAb 1, nor DR5 mAb 2 alone is capable of inhibiting cell growth | potent cytotoxicity | 4.18% | 1.75% | 7.49% | 5.11% | 5.11% | 0.36% | 4.25% | 2.09% | amount of immobilized biotinylated antibody ([6]; 10 μg/mL competitor DR5 mAb 1): 2.377; % Inhibition (Average) (LNCap): 1.72%; % Inhibition (Average) (SKMES): 1.28%; % Inhibition (Average) (SKBR3): 2.55%; % Inhibition (Average) (PC3 [9]): 2.19%; % Inhibition (Average) (SW48): 2.44%; % Inhibition (Average) (MCF7): 3.98%; % Inhibition (Average) (786O [10]): 1.79%; % Inhibition (Average) (NCI-N87 [11]): 0.67%; % Inhibition (Average) (MDA-MB-231): 4.47%; Net Gain (Average % Growth Inhibition) (Hs746T): 0.20%
